Source: patent US20250051407A1, “De novo designed sequence-specific DNA binding proteins” (University of Washington, priority 2023, published 2025)

Test system: synthetic promoter containing the designed DBP binding sites controlling YFP
Assay: Transcriptional repression assay (NOT gate, YFP) in E. coli
Type: cell-based, Escherichia coli
Conditions: IPTG induction (1 mM), flow cytometry
Description: We next tested the ability of the designed DBPs to function in cells to regulate transcription. We constructed candidate NOT gates (38) to assay transcriptional repression in Escherichia coli, where the input is a designed DBP under control of the IPTG-inducible PTac promoter and the output is yellow fluorescent protein (YFP) expression driven by a promoter incorporating each DBP's DNA binding site. […] To increase avidity and bulk, we fused the DBPs to the homodimerization domain of the TetR protein (39), using RFdiffusion (40) and ProteinMPNN sequence design to generate rigid linkers that orient the DBP domain of each dimer unit on a DNA target containing two palindromic binding sites. For DBPs 48, 69, and 57, we selected 96 TetR fusions for experimental characterization in the NOT gate circuit. Upon initial screening, we observed modest repression for several designs and selected two for further validation (one incorporating DBP48, the other DBP57) (FIG. 8). […]

B1: DBP48: designed DNA-binding protein, SEQ ID NO: 22, DNA target D (protein)
chain: MTPEEIAEAKRIGKEVKERRKELGLTQRELAEKLGVSRSTVSDIENGRRLPSEELLKKIKEILGV
**Q.** With B1 as the molecule, how does the “Fold repression of YFP by single DBP domains and tandem linked DBP domains” value read?
**A.** not observed
